{
  "source": "paper PMC10531356",
  "about": "“Hardening of Respiratory Syncytial Virus Inclusion Bodies by Cyclopamine Proceeds through Perturbation of the Interactions of the M2-1 Protein with RNA and the P Protein” (International Journal of Molecular Sciences, 2023)",
  "key": {"[1]": {"target": "M2-1(R151K)-mCherry mutant (human respiratory syncytial virus (hRSV), strain Long)", "experiment": "SEC; Hi-Load 16/600 Superdex 200, 20 mM Tris-HCl pH 7.4, 150 mM NaCl, after GST cleavage"}, "[2]": {"target": "M2-1-mCherry fusion protein (wild type) (human respiratory syncytial virus (hRSV), strain Long)", "experiment": "SEC; Hi-Load 16/600 Superdex 200, 20 mM Tris-HCl pH 7.4, 150 mM NaCl, after GST cleavage"}, "[3]": {"target": "T1, M2-1 core domain (wild type) (human respiratory syncytial virus …, UniProt P04545 58-177, 15N-labelled for NMR)", "T1 construct": "C-terminal globular core domain of M2-1 of hRSV strain Long, from pGEX-M2-1core; UniProt entry of strain Long not known to me; also called 15N-M2-1core; WT M2-1core", "T1 sequence": "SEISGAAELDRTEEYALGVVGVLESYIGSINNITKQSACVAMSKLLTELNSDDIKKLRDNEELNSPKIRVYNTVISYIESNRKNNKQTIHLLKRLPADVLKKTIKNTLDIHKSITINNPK", "experiment": "MST; FITC-P95-112 fixed at 100 nM, M2-1core 0 to 33.5 µM, PBS with 1% DMSO and 0, 1 or 10 µM CPM, 20 °C, Monolith NT.115", "details": "both partners purified"}},
  "note": "Where no end group is shown, it is not given here. The star is where a group is joined. FITC = O=C1OC2(c3ccc(O)cc3Oc3cc(O)ccc32)c2ccc(NC(=S)*)cc21",
  "data": [
    {"molecule": "M2-1(R151K)-mCherry mutant (natural protein)", "values": [
      {"measurement": "stoichiometry N", "setting": "[1]", "result": 4}
    ]},
    {"molecule": "M2-1-mCherry fusion protein (wild type) (natural protein)", "values": [
      {"measurement": "stoichiometry N", "setting": "[2]", "result": 4}
    ]},
    {"molecule": "{FITC}-DNPFSKLYKETIETFDNN (also called synthetic FITC-P peptide; P peptide; source: synthetic peptide, bought: Proteogenix)", "note": "[FITC-P(95-112) peptide]", "values": [
      {"measurement": "Kd", "setting": "[3]", "result": "~20", "unit": "µM"}
    ]}
  ]
}
